Results on five substances are retold here after US20250320279A1, “UNGULATE-DERIVED POLYCLONAL IMMUNOGLOBULIN SPECIFIC FOR INFLUENZA VIRUS AND USES THEREOF” (priority 2021, published 2025).

Common to all, as to assay: cell-based or functional assay
Assay [1] deals with hemagglutinin (HA) of influenza A/Brisbane/02/2018 H1N1 (Influenza A virus A/Brisbane/02/2018 (H1N1)).
The target in assay [2] is hemagglutinin (HA) of influenza A/California/4/2009 pH1N1 (Influenza A virus A/California/4/2009 (pH1N1)).
The target of assay [3] is hemagglutinin (HA) of influenza A/Cambodia/e0826360/2020 (2021-22) H3N2 (Influenza A virus A/Cambodia/e0826360/2020 (H3N2)).
The target in assay [4] is hemagglutinin (HA) of influenza A/Guangdong-maonan/2019 (Cell) H1N1 (Influenza A virus A/Guangdong-maonan/2019 (H1N1), (Cell)).
The target of assay [5] is hemagglutinin (HA) of influenza A/Guangdong-maonan/2019 (Egg) H1N1 (Influenza A virus A/Guangdong-maonan/2019 (H1N1), (Egg)).
Assay [6] deals with hemagglutinin (HA) of influenza A/Hong Kong/2671/2019 (Egg) H3N2 (Influenza A virus A/Hong Kong/2671/2019 (H3N2), (Egg)).
In assay [7] the target is hemagglutinin (HA) of influenza A/Kansas/14/2017 H3N2 (Influenza A virus A/Kansas/14/2017 (H3N2)).
For assay [8], the target named is hemagglutinin (HA) of influenza A/Michigan/45/2015 pH1N1 (Influenza A virus A/Michigan/45/2015 (pH1N1)).
Assay [9] deals with hemagglutinin (HA) of influenza A/Singapore/INFIMH-16-0019/2016 H3N2 (Influenza A virus A/Singapore/INFIMH-16-0019/2016 (H3N2)).
For assay [10], the target named is hemagglutinin (HA) of influenza A/Victoria/2570/2019 (2021-22) H1N1 (Influenza A virus A/Victoria/2570/2019 (H1N1)).
In assay [11] the target is hemagglutinin (HA) of influenza B/California/12/2015 B-Yam (Influenza B virus B/California/12/2015).
Assay [12] concerns the target hemagglutinin (HA) of influenza B/Colorado/06/2017 B-Vic (Influenza B virus B/Colorado/06/2017 (B-Vic)).
For assay [13], the target named is hemagglutinin (HA) of influenza B/Maryland/15/2016 B-Vic (Influenza B virus B/Maryland/15/2016 (B-Vic)).
In assay [14] the target is hemagglutinin (HA) of influenza B/Phuket/3073/2013 B-Yam (Influenza B virus B/Phuket/3073/2013 (B-Yam)).
Assay [15] addresses hemagglutinin (HA) of influenza B/Washington/02/2019 B-Vic (Influenza B virus B/Washington/02/2019).
Assay [16] deals with hemagglutinin (HA) of influenza A/Hong Kong/4801/2014 H3N2 (Influenza A virus A/Hong Kong/4801/2014 (H3N2)).
For assay [17], the target named is hemagglutinin (HA) of influenza A/Switzerland/9715293/2013 H3N2 (Influenza A virus A/Switzerland/9715293/2013 (H3N2)).
Assay [18] concerns the target hemagglutinin (HA) of influenza B/Brisbane/60/2008 B-Vic (Influenza B virus B/Brisbane/60/2008 (B-Vic)).

For SAB-176 Lot 1 V3 (antibody), the HAI titer (reciprocal dilution) is 512 in assay [1]; 128 in assay [3]; 512 in assay [4]; 512 in assay [5]; 64 in [6]; 64 in assay [7]. Besides, the HAI titer (reciprocal dilution) was determined as 512 in assay [8]; 512 in assay [9]; 256 in assay [10]; 128 in assay [11]; 256 in assay [12]; 256 in assay [13]. Moreover, the results for the HAI titer (reciprocal dilution) in assay [14] and in assay [15] were 128 and 64, respectively. The same substance gave an HAI titer (Huber virus stock) (reciprocal dilution) in [2] of 512. The HAI titer (hVIVO virus stock) (reciprocal dilution) in assay [2] is 512.
As to SAB-176 Lot 2 V3-V5 (antibody), the HAI titer (reciprocal dilution) in assay [1] is 512; in assay [3] it was 256; in assay [4], 512; in assay [5], 512; in assay [6], 128; in [7], 64. Further, the HAI titer (reciprocal dilution) is 512 in [8]; 512 in [9]; 256 in assay [10]; 128 in assay [11]; 256 in [12]; 256 in assay [13]. Further, the HAI titer (reciprocal dilution) in assay [14] amounted to 256; in [15], 128. The substance also yielded an HAI titer (Huber virus stock) (reciprocal dilution) in assay [2] of 512. Moreover, in assay [2], the HAI titer (hVIVO virus stock) (reciprocal dilution) was 1024.
With SAB-176 Lot 3 V3-V12 (antibody), the HAI titer (reciprocal dilution) in assay [1] was determined as 512; in [3], 256; in assay [4], 512; in assay [5] it was 512; in [6], 256; in [7] it was 512. For the same substance, the HAI titer (reciprocal dilution) in [8] was found to be 512; in assay [9], 512; in assay [10], 256; in assay [11] it was 128; in assay [12] it was 256; in assay [13], 128. Further, the HAI titer (reciprocal dilution) in assay [14] turned out to be 128; in [15] it was 64. In [2], the HAI titer (Huber virus stock) (reciprocal dilution) was found to be 512. This substance yielded an HAI titer (hVIVO virus stock) (reciprocal dilution) in [2] of 512.
As for SAB-176 Lot 4 V3-V12 (antibody), the HAI titer (reciprocal dilution) in [1] was determined as 512; in assay [3], 256; in [4], 512; in assay [5], 512; in assay [6], 256; in assay [7], 256. For the same substance, the HAI titer (reciprocal dilution) amounted to 512 in assay [8]; 512 in [9]; 256 in assay [10]; 128 in assay [11]; 256 in assay [12]; 256 in assay [13]. The HAI titer (reciprocal dilution) in assay [14] and in assay [15] was 128 each time. The HAI titer (Huber virus stock) (reciprocal dilution) in [2] was 512. Besides, the HAI titer (hVIVO virus stock) (reciprocal dilution) in assay [2] came to 512.
Turning to negative control IgG (antibody), the HAI titer (reciprocal dilution) in assay [1], in assay [2], in assay [3], in assay [4], in assay [5] and in [6] was < 1 throughout. For the same substance, the HAI titer (reciprocal dilution) in assay [16], in assay [7], in assay [8], in assay [9], in assay [17] and in [10] was < 1 throughout. For the same substance, the HAI titer (reciprocal dilution) in [18], in [11], in assay [12], in assay [13], in assay [14] and in [15] was < 1 each time. For the same substance, the HAI titer (Huber virus stock) (reciprocal dilution) in assay [2] is < 1. Further, the HAI titer (hVIVO virus stock) (reciprocal dilution) in [2] is < 1.
